# Patent publication US7998460B2, “Prevention of deficits in neurogenesis with anti-inflammatory agents” (The Board of Trustees of the Leland Stanford Junior …, priority 2003, dated 2011)
# B1: IL-6: recombinant rat interleukin-6 (protein)
# chain: FPTSQVRRGDFTEDTTPNRPVYTTSQVGGLITHVLWEIVEMRKELCNGNSDCMNNDDALAENNLKLPEIQRNDGCYQTGYNQEICLLKISSGLLEYHSYLEYMKNNLKDNKKDKARVLQRDTETLIHIFNQEVKDLHKIVLPTPISNALLTDKLESQKEWLRTKTIQFILKSLEEFLKVTLRSTRQT
# Assays:
# Assay type in all cases: cell-based, rat
# [1] = tested on: adult hippocampus-derived neural precursor cells; assay: Proliferation (BrdU) and survival (TUNEL) assays in differentiating neural precursor cultures
# Protocol: Proliferation and survival assays BrdU was added to the culture media from hour 24 to hour 48 of the 60 hour paradigm. Immunocytochemistry and confocal microscopy was then used to determine the fraction of GFP+ cells that labeled with BrdU, TUNEL, or type III β-tubulin or doublecortin. TUNEL staining was performed with Apoptag Red (Serologicals, Norcross, Ga.). The fraction of total (DAPI+) nuclei that were TUNEL+ were determined, as well as the fraction of doublecortin positive cells that were also TUNEL+.
# [2] = tested on: adult hippocampus-derived neural precursor cells; assay: In vitro neuronal differentiation (doublecortin) of hippocampal neural progenitor cells, 60 hours; settings: 60 hours
# Excerpt: Neuroinflammation could inhibit neurogenesis by a variety of mechanisms, including stimulation of the HPA axis with subsequent elevation of gluccocorticoids, alterations in the relationships between progenitor cells and cells of the neuro-vasculature, or direct effects of activated microglia on the precursor cells. To determine the extent to which microglial activation might directly affect neural stem/progenitor cells, microglia were stimulated in vitro with LPS. LPS is a potent activator of microglia and up-regulates the elaboration of pro-inflammatory cytokines, including IL-6 and TNF-α. LPS-stimulated or resting microglia were then co-cultured with normal neural stem cells from the hippocampus under conditions that typically stimulate the differentiation of 30 to 40% of the progenitor cells into immature Dcx-expressing neurons (normalized to a value of 1 in FIG. 2A, control). Neurogenesis in the presence of microglia was assessed as the increase or decrease in Dcx-expressing cells relative to control. Co-culture with activated, but not resting, microglia decreased in vitro neurogenesis to approximately half of control levels (FIG. 2A). LPS added directly to precursor cells had no effect on neurogenesis.
# To determine if this effect was due to soluble factors or due to cell-cell contact, hippocampal precursor cells were differentiated in the presence of media pre-conditioned by resting or activated microglia.
# Activated microglia produce the potent pro-inflammatory cytokines interleukin-1β (IL-1β), tumor necrosis factor-α (TNF-α), interferon-γ (INF-γ) and interleukin-6 (IL-6). Progenitor cells were allowed to differentiate in the presence of each cytokine and the relative expression of Dcx was scored after 60 hours. […] Addition of neutralizing anti-IL-6 antibody to CM from activated microglia was able to fully restore in vitro neurogenesis (FIG. 2A). This implicated IL-6 as a key inhibitor of neurogenesis in microglial CM. […] In contrast to neurogenesis, gliogenesis was unaffected by IL-6 exposure as indicated by the lack of change in the number of cells expressing the astrocyte (glial fibrillary acidic protein, GFAP) or early oligodendrocyte (NG2) markers relative to control cultures (FIG. 2E). The hippocampal precursors used in this study do express the IL-6 receptor, as confirmed by RT-PCR (FIG. 5).
# Progenitor Cell Culture Adult hippocampus-derived neural precursor cells were isolated from adult rat hippocampus and cultured as previously described. Briefly, adult female Fisher-344 rats were deeply anesthetized with sodium pentobarbital and were dissected immediately. Hippocampi were enzymatically dissociated with papain (2.5 U/ml; Worthington, Freehold, N.J.)-dispase II (1 U/ml; Boehringer Mannheim, Indianapolis, Ind.)-DNase I (250 U/ml, Worthington) solution. Digested tissue was then washed with DMEM-10% fetal calf serum (FCS) and subsequently mixed with PBS-equilibrated Percoll solution to a final concentration of 35% Percoll. The Percoll solution was made by mixing nine parts of Percoll (Amersham Pharmacia Biotech, Uppsala, Sweden) with one part of 10× PBS. The cell suspension was then fractionated by centrifugation for 10 min at 1000×gravity. Floating myelin and tissue debris were discarded and the cell pellet re-suspended in 65% Percoll solution and fractionated again by centrifugation for 10 min at 1000×g. The floating neural precursors were collected, washed free of Percoll, and plated onto poly-L-ornithine/laminin-coated dishes in DMEM/F12 (1:1) containing 10% FCS medium for 24 hrs; then medium was replaced with serum-free growth medium consisting of DMEM/F12 (1:1) supplemented with N2 supplement (Life Technologies, Gaithersburg, Md.) and 20 ng/ml of human recombinant FGF-2 (Peprotech, Rocky Hill, N.J.). Cell lines were labeled via infection with replication deficient GFP-expressing recombinant retrovirus LZRS-CAMut4GFP. […]
# Hes1 mRNA = assay: Real-time quantitative RT-PCR of Hes1 in neural precursors; settings: 60 hours exposure
# Excerpt: Signaling via gp130, the co-receptor of the IL-6 receptor, stimulates the Notch1 pathway, resulting in an increase in expression of the mammalian homolog of hairy-enhancer-of-split, Hes 1, transcription factor and antagonism of pro-neural basic helix-loop-helix (bHLH) genes and hippocampal neurogenesis during development. To determine if IL-6 treatment of adult stem cells leads to an increase in Hes 1 consistent with the reduction in neuronal cell fate, “real-time” quantitative RT-PCR was performed on total RNA extracted from neural precursors exposed for 60 hours to activated microglial CM or IL-6. Both CM and IL-6 caused a dramatic increase in Hes1 mRNA expression (3.2- and 7.7-fold increase respectively, relative to control).
# Total RNA isolation, cDNA synthesis, and SYBR Green real-time quantitative RT-PCR. […] Quantitative SYBR Green real time PCR was carried out as described previously. […] Quantitative RT-PCR was performed on ABI 5700 PCR instrument (PerkinElmer Life Sciences) by using 3-stage program parameters provided by the manufacturer as follows; 2 min at 50° C., 10 min at 95° C., and then 40 cycles of 15 s at 95° C. and 1 min at 60° C. […] Each sample was tested in five copies with quantitative PCR, and samples obtained from three independent experiments were used to calculate the means and standard deviations. […]
molecule,measurement,setting,value
B1,fraction of TUNEL-positive apoptotic cells,"[1]; mean+/-s.e.m., differentiating culture, IL-6 50 ng/ml",0.068+/−0.005
same,fraction of TUNEL-positive cells that co-labeled with doublecortin,[1]; mean+/-sem,0.83+/−0.02
same,mitotic index (fraction of cells labeled with BrdU in 24 hours),[1]; stem cell cultures,95+/−1.7%
same,BrdU labeling within the neuronal progeny,[1]; subset of spontaneously forming immature neurons,82+/−1.6%
same,gliogenesis (cells expressing GFAP or NG2 relative to control),[2]; IL-6 50 ng/ml,unaffected
same,decrease of in vitro neurogenesis (relative expression of Dcx),[2]; recombinant IL-6 50 ng/ml or TNF-α 20 ng/ml,approximately 50%
same,increase in Hes1 mRNA expression relative to control,Hes1 mRNA,7.7 fold
